From PMC9807522 (Cancer Science, 2022) come the findings set out here.

The target of experiment [1] is VEGFR2 on VEGFR2 overexpressing 293FT cells (Homo sapiens (assumed), UniProt P35968). The experiment in a line: cell-based or functional assay.
The target in experiment [2] is recombinant rhesus macaque VEGFR2‐His protein (Macaca mulatta, UniProt F7E313). The experiment in a line: ELISA.
The target of experiment [3] is recombinant human VEGFR2 protein (Octet) (Homo sapiens, UniProt P35968). The experiment in a line: BLI.
recombinant human VEGFR2 protein (Octet), sequence (P35968 20-1356): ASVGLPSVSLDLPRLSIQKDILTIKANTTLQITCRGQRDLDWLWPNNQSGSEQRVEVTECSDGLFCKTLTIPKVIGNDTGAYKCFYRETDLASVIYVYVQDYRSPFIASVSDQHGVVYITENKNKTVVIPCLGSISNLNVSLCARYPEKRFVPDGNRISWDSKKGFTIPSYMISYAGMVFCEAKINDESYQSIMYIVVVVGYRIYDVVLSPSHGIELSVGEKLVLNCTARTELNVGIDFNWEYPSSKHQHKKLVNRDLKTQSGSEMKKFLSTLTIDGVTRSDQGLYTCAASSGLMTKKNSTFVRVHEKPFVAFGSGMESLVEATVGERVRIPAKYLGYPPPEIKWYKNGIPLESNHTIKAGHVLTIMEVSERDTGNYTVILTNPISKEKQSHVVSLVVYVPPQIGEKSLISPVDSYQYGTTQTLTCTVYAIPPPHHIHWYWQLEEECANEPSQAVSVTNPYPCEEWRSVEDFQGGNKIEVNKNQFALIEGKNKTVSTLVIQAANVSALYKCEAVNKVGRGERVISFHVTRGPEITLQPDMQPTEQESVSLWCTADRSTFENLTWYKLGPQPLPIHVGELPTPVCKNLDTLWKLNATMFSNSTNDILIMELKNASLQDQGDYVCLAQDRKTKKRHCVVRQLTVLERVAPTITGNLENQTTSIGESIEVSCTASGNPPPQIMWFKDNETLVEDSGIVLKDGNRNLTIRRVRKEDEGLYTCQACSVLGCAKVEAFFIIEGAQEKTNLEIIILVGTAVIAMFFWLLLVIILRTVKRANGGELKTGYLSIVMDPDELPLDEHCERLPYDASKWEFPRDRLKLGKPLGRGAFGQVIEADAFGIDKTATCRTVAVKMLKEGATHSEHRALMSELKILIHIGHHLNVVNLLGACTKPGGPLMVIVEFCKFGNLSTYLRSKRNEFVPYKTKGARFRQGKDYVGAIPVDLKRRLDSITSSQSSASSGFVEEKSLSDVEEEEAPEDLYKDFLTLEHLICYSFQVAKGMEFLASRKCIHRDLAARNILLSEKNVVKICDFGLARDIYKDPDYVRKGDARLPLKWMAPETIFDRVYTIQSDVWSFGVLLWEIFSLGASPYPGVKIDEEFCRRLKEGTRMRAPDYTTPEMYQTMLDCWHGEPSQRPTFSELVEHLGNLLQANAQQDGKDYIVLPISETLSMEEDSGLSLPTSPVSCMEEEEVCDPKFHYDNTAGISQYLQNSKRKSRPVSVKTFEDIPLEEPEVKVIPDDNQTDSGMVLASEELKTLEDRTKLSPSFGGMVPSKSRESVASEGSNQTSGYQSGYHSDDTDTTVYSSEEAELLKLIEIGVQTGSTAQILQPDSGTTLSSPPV

VEGFR2 on VEGFR2 overexpressing 293FT cells, sequence (P35968 20-1356): as above

B1: ramucirumab (antibody, V domains shown)
VH: EVQLVQSGGGLVKPGGSLRLSCAASGFTFSSYSMNWVRQAPGKGLEWVSSISSSSSYIYYADSVKGRFTISRDNAKNSLYLQMNSLRAEDTAVYYCARVTDAFDIWGQGTMVTVSS
VL: DIQMTQSPSSVSASIGDRVTITCRASQGIDNWLGWYQQKPGKAPKLLIYDASNLDTGVPSRFSGSGSGTYFTLTISSLQAEDFAVYFCQQAKAFPPTFGGGTKVDIK
As for B1, in experiment [1], the “EC50 of neutralisation of HUVEC proliferation induced by human VEGF-C” value was determined as 0.0874 µg/mL and the “EC50 of neutralisation of HUVEC proliferation induced by human VEGF-C+VEGF-D” value was found to be 0.086 µg/mL. The binding result in experiment [2] is recorded as “binds”. Also, the Kd in experiment [3] worked out at 0.0458 nM.
